± gives the standard deviation of the averaged measurements.
tested on: ATP; experiment: switch fluorescence ratio, 500 uM ATP over buffer (Cy3 cluster intensity, sum of 5 cycles each) (fold (ratio)); higher = stronger signal-on switching upon ATP binding; sequences stand for … in TCGTCGGCAGCGTCAGATGTGTATAAGAGACAGTTTTTTTTTTTTTTTTTTTTTTTTT…TC; conditions: aptamer strand: ATP DNA aptamer (quencher-CACCTGGGGGAGTATTGCGGAGGAAGG + anchor), 100 nM annealed; ATP concentration: 500 uM
Procedure, shortened: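 Exposure to 500 uM ATP lasted 15 min at 22 °C before imaging, and a selection-buffer image was taken beforehand, for Cy3-labelled switching-strand clusters on a modified Illumina MiSeq flow-cell annealed to 100 nM quencher-labelled ATP aptamer. Five buffer/ATP cycles were run with NaOH stripping and re-annealing between them. The fluorescence ratio per cluster is summed target-cycle over summed buffer-cycle Cy3 intensity, averaged per switch-domain sequence. Clusters outside 100-1000 RFU were excluded.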

Sequence	switch fluorescence ratio
TGGGGCTGCC	0.969 ± 0.039
CTTCGGTGTT	0.9967 ± 0.0085
CCGAGAATCG	1.02 ± 0.036
TTGGTGAGGT	0.99 ± 0.041
CTGCGACTGT	1.026 ± 0.0099
CGGGTAGTTA	0.99 ± 0.029
TGAATATTTT	0.9787 ± 0.0076
TTTTTGAGCA	1.05 ± 0.049
TTGTTTTACA	0.9843 ± 0.0096
GGTTGCGTCT	0.9613 ± 0.003
TTTAGAGGCT	1 ± 0.012
CGAAAAAAAA	0.948 ± 0.062
ATTAGCTTAG	0.987 ± 0.017
ATTTAGCCTA	0.9758 ± 0.0079
AACACGTATA	1.227 ± 0.0097
TGACGACGAG	0.992 ± 0.052
TGAGTAATAG	2.01 ± 0.87
GCCAGCCGTT	1.014 ± 0.0038
ACCTTTTTAT	1.02 ± 0.038
TTAGAAAGGG	0.977 ± 0.029
AGTTGTTGGT	1.01 ± 0.014
TCAGGGGAGG	1.03 ± 0.036
TTGTTAATAT	1 ± 0.035

Sequence	switch fluorescence ratio
AATGTGGTCT	0.994 ± 0.021
TAATCAGGTA	1.1 ± 0.02
TTGGTGCATG	1.01 ± 0.04
TTTAATCAAG	0.951 ± 0.021
TGTATGTTAG	0.9477 ± 0.0061
CTATGATCTT	0.992 ± 0.012
ATTCCAGACG	1.01 ± 0.024
CGAGTAGGGG	1.01 ± 0.025
CGTTTAGGCT	1.07 ± 0.14
TCTGGTAGGG	0.99 ± 0.01
GGGGACAGTG	1.01 ± 0.13
TTCGGGGAAA	1.02 ± 0.043
GGTTGTTACG	0.987 ± 0.033
CAAGGTGGGG	1.03 ± 0.0038
TTTAGGACGT	0.999 ± 0.059
CGATGTCTCT	0.973 ± 0.047
GGAGACCGCT	1.02 ± 0.034
CGCGGTATTA	1.02 ± 0.013
TTTGATAAGT	1.06 ± 0.07
GATTGATAGG	0.99961 ± 0.00019
ACACGTTGGC	1.05 ± 0.06
TAATTTTGCG	1 ± 0.015
GGTTCCTTA	0.994 ± 0.045

Sequence	switch fluorescence ratio
TGCATGGGCT	1.05 ± 0.12
GTGGTTCCCG	1 ± 0.0099
AAGCCGGGAT	1.02 ± 0.016
TTCAGTATGG	0.9614 ± 0.0068
TGCAAAAGAG	1.01 ± 0.062
ACAAGTTGGA	1.11 ± 0.061
AAGTTTTATT	0.992 ± 0.043
TTATTGCGGG	0.967 ± 0.019
ACTTTCTCAG	1.077 ± 0.0049
GCGTGTGGGC	1.071 ± 0.0066
GGGGTGATAT	1.58 ± 0.78
AGGGGTTGGT	0.983 ± 0.027
TTTTCCTAGA	1.004 ± 0.0057
GGGTCAGGGC	1.06 ± 0.062
TCGGATTGTG	1.01 ± 0.021
CGTATAATTT	0.97555 ± 0.00021
TCTTTGATCT	1.02 ± 0.054
AGGATCCTCG	0.992 ± 0.018
TGGACGGGGA	1.03 ± 0.031
GCGTCAAGAG	1.24 ± 0.046
GATTTCGTAT	0.98 ± 0.014
TAAAAAATAC	1.67 ± 0.74
GCCGCAGACA	1.39 ± 0.1

Sequence	switch fluorescence ratio
GAGGTACGCT	1.01 ± 0.021
AAAGGTAGAG	1.01 ± 0.04
TTGATTCATT	1.01 ± 0.025
GACGGTTAAA	1.12 ± 0.11
CTTAGCCTTT	0.983 ± 0.016
ATACATTGTC	0.978 ± 0.074
TTCGTTAAAG	0.9612 ± 0.002
AGCGGAGAGG	1.006 ± 0.0096
CCTATTGTAT	1.02 ± 0.033
TACTTTTCGT	0.995 ± 0.024
GATGGCAGCG	1.05 ± 0.045
AATATTTTAT	1.014 ± 0.0022
TTTATACGGC	1.03 ± 0.014
GCTGGGGTGG	1.01 ± 0.05
CTCCTTAGTT	1.05 ± 0.035
TTGCAATTAT	1.26 ± 0.18
ACTATCGGCA	1.02 ± 0.029
AATCGCTTTT	1 ± 0.053
TTTATTTGCC	1.05 ± 0.042
TGTATGGTAG	0.975 ± 0.025
AGAGACGGCA	1.01 ± 0.032
CATATGTTTT	1 ± 0.035
TTAGGGGAAG	1.01 ± 0.022

Sequence	switch fluorescence ratio
CGGGCGAGGG	0.959 ± 0.011
CCTATGCTTC	3.38 ± 1.7
GTTCGAAGGG	0.987 ± 0.013
ACGGGTTTGT	0.9774 ± 0.0036
CTAGATCGAT	0.992 ± 0.022
GGGTCTAGAG	1.0295 ± 0.00078
TATTGGTTTG	1.04 ± 0.045
GGCCCTGCAG	1.02 ± 0.042
ATATTCTTTT	1.03 ± 0.091
GCATTAAAGT	0.958 ± 0.033
CGCGGAGTAG	0.9869 ± 0.0043
ACGGGGTCCG	0.95 ± 0.03
TGATACGCTA	1.28 ± 0.23
ACTTTTTATA	0.968 ± 0.082
GGTTGATTTA	1.036 ± 0.0037
GTGGGGGGTG	1.02 ± 0.057
GATTTTTAGG	0.964 ± 0.015
GAGTAGGAGG	0.974 ± 0.051
AATTAGGGAA	1.01 ± 0.023
GGATGATGGT	0.985 ± 0.037
TTTGATGTAG	1.01 ± 0.011
GGGGATCAGG	1.03 ± 0.075
TCATTTCGCC	1.071 ± 0.0047

Sequence	switch fluorescence ratio
TCAGGATTGA	0.98 ± 0.036
TGAGCTCACG	1.02 ± 0.027
ACGGAGGGTT	0.992 ± 0.01
TCAAGGGGGC	0.9915 ± 0.0018
CAAAGGGGGG	1.13 ± 0.38
GGTGGCTTGC	1.014 ± 0.0032
GGGTCCGAGA	1.31 ± 0.4
TGGGGATTTT	0.998 ± 0.063
TTTAATACGA	1.04 ± 0.042
TGATACGGGG	1.01 ± 0.026
GCATCAATGG	1.06 ± 0.014
GCTTTAGTCA	0.967 ± 0.034
TTAAAGAGGG	0.974 ± 0.054
GTGTGTCTCT	0.999 ± 0.016
AAGTGGATCT	0.988 ± 0.078
CCCAGGGGA	1.91 ± 1
CATGGTTCTG	1.02 ± 0.027
CTAGTCCTGA	0.986 ± 0.043
TACATTATAG	1.01 ± 0.036
TTTTCTATCT	1.06 ± 0.057
GATAGGTGAG	1.01 ± 0.024
GGACACTACC	1.25 ± 0.036
TTGGTCTATC	0.998 ± 0.035

Sequence	switch fluorescence ratio
GGTACTCTTT	1 ± 0.037
CGGGGTATAG	1.37 ± 0.52
ATGTTATCGA	1.008 ± 0.0074
ACCGGGTTGC	1.064 ± 0.008
GAAAGGAATG	1.041 ± 0.007
AAATTAGGTC	0.95 ± 0.11
GATTTAGAAT	1.01 ± 0.012
GGGATGTAAG	0.966 ± 0.027
CCGGGGGAGG	1.06 ± 0.048
CATCTGGGCC	1.01 ± 0.022
GTTGTAGTCG	1.02 ± 0.038
ATTGGGAGTA	0.988 ± 0.0099
TTTTATGTAA	0.996 ± 0.032
CGGCAGGTAA	1.05 ± 0.03
AAATATCTGC	1.04 ± 0.029
TTTGAGAAGG	0.948 ± 0.022
GGATTGTTGT	0.994 ± 0.022
TCTCTGTTTT	1.05 ± 0.022
TTTTTTGTAG	1.01 ± 0.016

— the supplement of paper PMC10126150
